Experimental data taken from the RNAGym collection of RNA variant scans (doi:10.1073/pnas.2313332121).

B1: TPR t1 (parent)
chain: GACCAAUCUGCCCUCAGAGCUCGAGAACAUCUUCGGAUGCAGAGGAGGCAGGCUUCGGUGGCGCGAUAGCGCCAACGUCCUCAACCUCCAAUGCAUCCCACCACAUGAUGAUGCCUGAAGAGCCUUGGUUUUUUG

Variants of: B1
Test: polymerase ribozyme fitness, log enrichment relative to wild type (log ratio); higher = more active; in vitro selection for triplet polymerase activity
Outline: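 Fitness measures genotype enrichment against wild-type enrichment on a logarithmic scale, with inverse-variance-weighted averaging of replicates. The logarithm is base 2, and genotypes were kept only with ≥10 input reads and ≥1 read per output in Illumina sequencing. The sequenced libraries came from one triplicate in vitro selection round, including frozen incubation at −7 °C, of PCR-built, transcribed mutant libraries of each subunit of a heterodimeric triplet polymerase ribozyme.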

Variant | polymerase ribozyme fitness (log ratio)
G19A G58C C94G G120C | -3.72
A18U C56U U87G U106C A121C | -0.72
G19A A26G U112C A118U | -3.63
G19C C115G | -2.22
G19C C94A U130C | -2.66
A18U C123U | -1.12
C20A C62G C115U G122U | -6.79
C20A A37U G61A A121C G122A | -1.31
C20A A46G C49A G60U U81G A91C | -5.46
G19A A41U U81A C82A U112A | -0.674
G19U C53G U54A G61A | -2.73
A18U C56U C123G U129A | -1.91
C20A C40U | -3.35
A18U G71U U92G | -5.1
C20A C22G G71A A121G | -3.88
C20A A26G G110U | -4.8
G19U C34A G69C C114U | -6.59
G19U G60A G110U | -6.37
A18U C40A G120U C123A U129C | -4.63
G19U C62U | -3.18
G19A C101G | -5.15
A18U C40U G113A G117A | -6
A18U C20G A50U C72G G113A | -4.8
G19A G23U U92A G120U C124U | -6.05

Variant | polymerase ribozyme fitness (log ratio)
G19C A37U C62G C124U | -3.51
G19C A37G G69U C124G | 0.721
G19C C72U A91U G113A | -0.96
G19U C53G C73A U112A | -1.03
G19U C115G U130G | -5.08
G19C U81C C124G | -0.981
C20A A111G | -3.92
G19U G39C C53U G71U U81A G93U C114A | -4.82
A18U A95G | -2.21
C20A A41U G71A | -4.76
G19U G36C A75G A111C U132A | -5.05
G19C C79A C89A | -4.61
G19U A43G G47U C76G G113A A119C U131A | -4.34
C20A A37U U54A | -3.54
G19A C79G U81C | -3.95
A18U G127C | -3.45
G19U G61A C62U C124A U131C | -4.46
A18U C40A A41U | -3.61
G19A U87G U109G | -4.8
C20A C56U C80U | -4.41
A18U G44U | -2.49
A18U G44A | -2.99
G19A G60A A90C | -2.74
G19A C85U C114G | -2.91

Variant | polymerase ribozyme fitness (log ratio)
G19C C20U C64U | -1.8
G19A A41U U78C U132C | -4.37
G19U U129G | -4.04
G19A A91G G117A | -5.25
A18U G19A G39U C115G | -3
C20A C56A C98U | -3.64
G19A G69U G127C | -2.66
A18U C49U C102U G117A | -7.34
G19U G42A | -3.15
G19U G42C | -3.93
A18U C124U | -1.01
G19U A37C C56U A84C | -3.87
A18U G120U | -1.46
A18U U129A | -4.3
A18U U129G | -3.92
A18U G44C C73A A90C | -1.95
G19C U78C A90G G113U C114U | -0.588
G19C G42A G120U | -2.23
C20A C34U C72U C76A C82A A121C G135U | -6.49
G19U U55G C123A | -4.18
A18U G60A A90C | -1.79
A18U G44C U92A A119U C123A | -5.44
A18U G48U G61U C104U | -2.08
A18U G47U | -3.96

Variant | polymerase ribozyme fitness (log ratio)
A18U C20G | -4.36
G19U G39U G48A G63C A111G | -4.79
A18U C72U C85A | -3.5
A18U G52U U133A | -3.89
G19U G71C A121U | -2.34
G19U C56G U106C | -5.42
A18U G48A U59G G113A G135U | -4.36
G19C G44C C70A G93C C124G | -5.3
C20A A27C | -4.9
G19U A37C | -3.64
A18U C114A U125A U133G | -1.87
C20A A43U | -3.83
A18U G61A | -1.19
A18U G61C | -5.22
G19U C70U C94A C114U | -2.13
G19U A46U G60A | -3.83
G19A C88U | -2.19
G19C G45A C72A G120C | -1.67
G19A C73U C82U C114A | -1.84
G19C U92A C114U U133A | -1.16
A18U G122U | -2.38
A18U C115U | -2.09
G19A G61C C73U C89A C114U U131G | -5.3
A18U G110U | -3.52

Variant | polymerase ribozyme fitness (log ratio)
C20A C53A U59A G69C | -4
G19A G63C | -2.92
G19U U21A C49A C82A G113C | -4.41
C20A A27G C40G U55C G71C G113A | -3.84
G19A C76A C89G | -4.06
G19C G42U G45C C79A C82G | -4.37
C20A C53A U78G C82G U112A | -0.686
G19A C72A | -2.12
G19A G42U G45C A50U | -4.81
C20A C53A G57A C73U C79U C102A A121C | -4.43
G19U C70G | -5.52
G19U C70U | -3.23
G19U C70A | -4.07
G19A C20A U59C U96A | -5.13
G19C A43C G44C C64A A105C A111U | -7.06
C20A A50U G120A | -3.84
A18U C22U A37U A118U | -5.28
C20A A50G A74U | -3.16
A18U C94U C101A G110A | -6.65
A18U C88U A111U G127A | -5.73
G19U G44A C70A C72U | -6.42
A18U C56U | -1.72
G19U G135U | -3.57
A18U C70U | -3.33

Variant | polymerase ribozyme fitness (log ratio)
A18U C70A | -5.29
A18U C70G | -6.16
G19A U112G | -3.87
A18U G57A U106A | -5.57
G19C G61A G113U U129A | -4.11
G19A G44U | -3.1
A18U C49A | -2.29
A18U C49G | -3.54
G19U A26U C114A | -1.45
A18U G93C C94U | -3.75
G19U A37U U55G | -4.52
A18U C70U A84G | -6.3
G19C C62G C115U | -4.26
A18U C22U A43G G60A | -6.88
G19A U87A | -2.78
G19A A121C | -1.3
A18U C64U C72G A121G | -0.335
G19C C20A G71A A95U C102U U116C C123U U126G | -6.03
A18U U54A C72G | -2.46
G19C G42C G110U G113A | -5.33
A18U G57C G77U A105U U112C | -4.24
A18U U112C G128A | -2.38
G19U G71A | -3.31
G19C G63U C80A G110C | -6.93

Variant | polymerase ribozyme fitness (log ratio)
A18U A111C | -2.74
C20A A90U | -3.71
C20A A74G | -3.04
A18U U21A G51C C53G C56A G57C C79U C115U U130G U131A | -5.86
G19U G48C C123U | -5.25
C20A C34G C85U A90C G120C | -5.64
A18U U78A A95U C104U | -4.27
C20A A46U C72U U129A | -6.73
G19A C62U U78C G127C | -4.4
G19A A74C | -3.23
G19U C72A | -3.06
A18U G42C A43C G93C | -5.75
A18U C79A G93A U116A C124U | -6.2
G19A C20A A66G G69U U96A | -4.02
C20A C40A C115A | -4.58
A18U C73A | -3.04
G19A G48U C49U G69U U78C G93U | -3.08
G19U C88U | -3.2
A18U G61A C123G | 0.0966
A18U C62U C86A C114U | -5.98
A18U U112G | -2.46
A18U U112A | -1.42
A18U G35U U54G C88A U112A | -7.02
